T1: G-CSFR(Ig-CRH)E design 9, purified, tag cleaved (human, UniProt Q99062 26-331)
T1 construct: SPR protein; also called Design 9 G-CSFR(Ig-CRH)E
T1 chain: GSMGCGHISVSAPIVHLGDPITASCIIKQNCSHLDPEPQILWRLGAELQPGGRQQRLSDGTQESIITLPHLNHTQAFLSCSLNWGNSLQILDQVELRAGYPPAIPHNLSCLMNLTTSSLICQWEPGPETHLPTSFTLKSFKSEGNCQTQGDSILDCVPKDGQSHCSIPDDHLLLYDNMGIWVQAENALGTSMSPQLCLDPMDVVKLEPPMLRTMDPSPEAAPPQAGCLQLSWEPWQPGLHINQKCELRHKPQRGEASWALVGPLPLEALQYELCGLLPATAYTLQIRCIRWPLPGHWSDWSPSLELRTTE

T2: G-CSFR(Ig-CRH)E design 30, purified, tag cleaved (human, UniProt Q99062 26-331)
T2 construct: also called Design 30 G-CSFR(Ig-CRH)E
T2 chain: T1 chain with E143R, D170K, D176Q

T3: G-CSFR(Ig-CRH)E design 34, purified, tag cleaved (human, UniProt Q99062 26-331)
T3 construct: SPR protein; also called Design 34 G-CSFR(Ig-CRH)E
T3 chain: T1 chain with D170K, D176Q

T4: G-CSFR(Ig-CRH)E design 35, purified, tag cleaved (human, UniProt Q99062 26-331)
T4 construct: SPR protein; also called Design #35 G-CSFR(Ig-CRH)E
T4 chain: T1 chain with D169R, D170K, L173E, D176E

T5: G-CSFR(Ig-CRH)E design 307, purified, tag cleaved (human, UniProt Q99062 26-331)
T5 construct: SPR protein; also called Design 307 G-CSFR(Ig-CRH)E
T5 chain: T1 chain with R43E, E143R, D169R, D170K, D176Q, D199K, D202K, R290E

T6: G-CSFR(Ig-CRH)E design 304, purified, tag cleaved (human, UniProt Q99062 26-331)
T6 construct: SPR protein; also called Design 304 G-CSFR(Ig-CRH)E
T6 chain: T1 chain with R43E, E95K, E143R, D170K, D176Q

B1: WT G-CSF, purified, tag cleaved (ligand)
chain: TPLGPASSLPQSFLLKCLEQVRKIQGDGAALQEKLCATYKLCHPEELVLLGHSLGIPWAPLSSCPSQALQLAGCLSQLHSGLFLYQGLLQALEGISPELGPTLDTLQLDVADFATTIWQQMEELGMAPALQPTQGAMPAFASAFQRRAGGVLVASHLQSFLEVSYRVLRHLAQAAAENLYFQ
notes: also called G-CSFWT
B2: G-CSFE design 307, purified, tag cleaved (ligand)
chain: B1 chain with S12E, K16D, E19K, E46R
notes: also called 307 G-CSF
B3: WT G-CSFR(Ig-CRH), purified, tag cleaved (receptor)
chain: T1 chain with E143R, D169R, D170K, D176Q
notes: also called G-CSFRWT; wild type G-CSFR ECD
B4: G-CSFE design 304, purified, tag cleaved (ligand)
chain: B1 chain with E46R, L108K, D112R, R147E
notes: also called 304 G-CSF

Where a chain is given by its changes, count along the chain named.

Test [1] deals with T1, G-CSFR(Ig-CRH)E design 9, purified, tag …. Kind of test: SPR (Biacore T200).
Test [2] deals with T2, G-CSFR(Ig-CRH)E design 30, purified, …. Kind of test: SPR (Biacore T200).
The target in test [3] is T3, G-CSFR(Ig-CRH)E design 34, purified, …. In words: SPR (Biacore T200).
Test [4] has as its target T2, G-CSFR(Ig-CRH)E design 30, purified, …. In words: SPR (Biacore T200), WT G-CSF vs design receptor; KD relative to WT:WT control (larger = weaker).
Test [5] addresses T4, G-CSFR(Ig-CRH)E design 35, purified, …. The test is described as above.
Test [6] deals with T1, G-CSFR(Ig-CRH)E design 9, purified, tag …. Kind of test: SPR (Biacore T200), WT G-CSF vs design receptor; steady-state derived KD relative to steady-state WT:WT KD (larger = weaker).
The target of test [7] is T3, G-CSFR(Ig-CRH)E design 34, purified, …. Described as above.
Test [8] deals with B3. Kind of test: SPR (Biacore T200), WT G-CSFR(Ig-CRH) amine-coupled.
In test [9] the target is T5, G-CSFR(Ig-CRH)E design 307, purified, …. In words: SPR (Biacore T200), G-CSFR(Ig-CRH)E amine-coupled, G-CSFE injected; steady-state derived KD relative to steady-state WT:WT KD.
Description: (§1) To determine binding affinity of G-CSFE to G-CSFRE the G-CSFRE mutant was captured by standard amine coupling as described by the manufacturer (GE LifeSciences). Briefly, immediately after EDC/NHS activation, a 5 μg/mL solution of G-CSFRE in 10 mM NaOAc, pH 5.0, was injected at a flow rate of 5 μL/min until a receptor density of ˜700-900 RU was reached. The remaining active groups were quenched by a 420 s injection of 1 M ethanolamine hydrochloride-NaOH pH 8.5 at 10 μL/min. Using single-cycle kinetics, six concentrations of a two-fold dilution series of the corresponding G-CSFE mutant starting at 200 nM with a blank buffer control were sequentially injected at 25 μL/min for 300s with a 1800s dissociation phase, resulting in a set of sensorgrams with a buffer blank reference. The same sample titration was also performed on a reference cell with no variants captured. The chip was regenerated to prepare for the next injection cycle by one pulse of 10 mM glycine/HCl, pH 2.0, for 30 s at 30 μL/min.
(§2) Double-referenced sensorgrams from duplicate or triplicate repeat injections were analyzed using Biacore™ T200 Evaluation Software v3.0 and fit to the 1:1 Langmuir binding model.
(§3) Kinetic-derived affinity constants (KD) where obtained by fitting the association and dissociation phases of the curves. […] For the cases in which the kinetic parameters could not be fit an attempt was made to derive a steady state affinity constant.
Test [10] addresses B1. Kind of test: SPR (Biacore T200, 25 C), kinetic fit, 1:1 Langmuir; range over independent experiments; lower end of the range over the WT:WT runs.
Description: The SPR binding assays were carried out on a Biacore T200 instrument (GE Healthcare, Mississauga, ON, Canada) with PBS-T (PBS+0.05% (v/v) Tween 20) running buffer at a temperature of 25° C. […] Designs were assessed in three different immobilization orientations.
as §2, §3
Test [11] addresses T6, G-CSFR(Ig-CRH)E design 304, purified, …. In words: SPR (Biacore T200), G-CSFR(Ig-CRH)E amine-coupled, G-CSFE injected; KD relative to WT:WT control (larger = weaker).
Description: The SPR binding assays were carried out on a Biacore T200 instrument (GE Healthcare, Mississauga, ON, Canada) with PBS-T (PBS+0.05% (v/v) Tween 20) running buffer at a temperature of 25° C. CMS Series S sensor chip, Biacore amine coupling kit (NHS, EDC and 1 M ethanolamine), and 10 mM sodium acetate buffers were all purchased from GE Healthcare. PBS running buffer with 0.05% Tween20 (PBS-T) was purchased from Teknova Inc. (Hollister, CA).
as §1, §2

Turning to B1, the “fold weaker affinity (vs WT:WT)” value in test [1], in test [2] and in [3] was 700 fold in each case. The “KD fold change (vs WT:WT)” value in test [4] stood at 774 fold; in test [5], 19 fold; in test [6], 8810 fold; in test [7] it was 4260 fold.

Take B2: the binding result in test [8] is reported as “no binding”. Also, the “KD fold change (vs WT:WT)” value in test [9] was 0.6 fold.

In test [10], B3 showed a Kd of 1.8 to 2.5 nM.

Consider B4, for which the binding result in test [8] is listed as “no binding”. Further, the “KD fold change (vs WT:WT)” value in test [11] is 6.5 fold.

For the origin of these results see patent publication US20240115603A1 (Zymeworks, published 2024).
